In the nanobody polyreactivity screen of Harvey et al. (2022):

Assay: yeast display, Sf9 membrane polyspecificity reagent, FACS + sequencing; frameworks hold sequencing errors
In short: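 In a synthetic yeast display library (Saccharomyces cerevisiae BJ5465), nanobody expression was induced with galactose for 36–48 hours. FACS gates were set low and high (top ~1%) using anti-HA fluorescence for expression and streptavidin fluorescence for binding of the Sf9 membrane reagent. Each polyreactivity label is drawn from the gate of origin.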

Sequence | polyreactivity (PSR sort gate)
QVQLVESGGGLVQAGGSLRLSCAASGFTFDSYAMGRYRQAPGKERELVAAISSSGGDSTSYADSVKGRFTISRDNAKNTVYLQMNRLKPEDTAVYYCADEQFYSFIVDDTWFSGFDYWGQGTQVTVSS | low polyreactivity
QVQLVESGGGLVQAGGSLRLSCAASGFTFDSYAMGWYRPAPGKERELVAAITSDGSTYYADSVKGRFTISRDNAKNTVYLQMNSLKPEDTAVYYCAARSTARYGYWGQGTQVTVSS | low polyreactivity
QVQLVESGGGLVQAGGSLRLSCAASGFTFDSYAMGWYRQAPGKERELVAAITWDGGSTYYADSVKGRYTISRDNAKNTVYLQMNSLKPEETAVYYCAADFGTISIDVYSWMDYWGQGTQVTVSS | low polyreactivity
QVQLVESGGGLVQAGGSLRLSCAASGFTFDTNAMGWYRQAPGKERELVAAISWGGDTTYYADSVKGRFTISRDNAKNTVYLQMNSLKPEDTAVYYCNVYWYDWWGYDYWGQGTQVTVSS | high polyreactivity
QVQLVESGGGLVQAGGSLRLSCAASGFTFDWNAMGWYRQAPGKERELVAAISSSTGRTYYADSVKGRFTISRDNAKNTVYLQMNSLKPEDTAVYYCAASLGGRAGNYWGQGTQVTVSS | high polyreactivity
QVQLVESGGGLVQAGGSLRLSCAASGFTFDWNGMGWYRQAPGKEREFVAGITWSGTSTYADSVKGRFTISRDNAKNTVYLQMNSLKPEDTAVYYCAAVSSKGNRHEYDYWGQGTQVTVSS | low polyreactivity
QVQLVESGGGLVQAGGSLRLSCAASGFTFDYNAMGWYRQAPGKEREFDAAISTGGSTKYADSVKGRFTISRDNAKNTVYLQMNSLKPEDTAVYYCNKQTTDRGFYDWKWSGFDYWGQGTQVTVSS | low polyreactivity
QVQLVESGGGLVQAGGSLRLSCAASGFTFDYNAMGWYRQAPGKERELVAGITSGGRTYYADSVKGRFTISRDNAKNTVYLQMNSLKPEDTAVYYCAATPEPPAYGTPLVPYSYDYWGQGTQVTVSS | low polyreactivity
QVQLVESGGGLVQAGGSLRLSCAASGFTFDYYAMGWYRQAPGKERELVAAISKSGGSTYYADSVKGRFTISRDNAKNTVYLQLISLKPEDTAVYYCAAYTYVRSKNKGGDYWGQGTQVTVSS | high polyreactivity
QVQLVESGGGLVQAGGSLRLSCAASGFTFDYYAMGWYRQAPGKERELVAAISRAGSTNYADSVKGRFTISRDNAKNTVYLQMNSLKPEDTAVYYCNKGYHSWSRLSQFGWSYDYWGQGTQVTVSS | high polyreactivity
QVQLVESGGGLVQAGGSLRLSCAASGFTFDYYFMGWYRQAPGKERELVAAISLRSGRTYYADSVKGRFTISRDNAKNTVYLQMKSLKPEDTAVYYCAAESRGVGAYYYWGQGTQVTVSS | high polyreactivity
QVQLVESGGGLVQAGGSLRLSCAASGFTFEENAMGWYRQAPGKERELVAAINWSGGNTYYADSVKGRFTISRDNAKNTVYLQMNSLKPEDTAVYYCAAEYRSWSWRMDYWGQGTQVTVSS | high polyreactivity
QVQLVESGGGLVQAGGSLRLSCAASGFTFEKNAMGWYRQAPGKERELVAAISRGGSTYADSVKGRFTISRDNAKNTVYLQMNSLKPEDTAVYYCAADTVYIFSSAINGEFGYWGQGTQVTVSS | low polyreactivity
QVQLVESGGGLVQAGGSLRLSCAASGFTFEKNAMGWYRQAPGKERELVAAITSGGSTYYADSVKGRFTISRDNAKNTVYLQMNSLKPEDTAVYYCNAYYTYRFNYWGQGTQVTVSS | high polyreactivity
QVQLVESGGGLVQAGGSLRLSCAASGFTFEKYVMGWYRQAPGKDREFVAAITRSGGRTYYADSVKGRFTISRDNAKNTVSLQMNSLKPEDTAVYYCAAAFSRSDTGGGSSGQGTQVTVSS | high polyreactivity
QVQLVESGGGLVQAGGSLRLSCAASGFTFERNTMGWYRPAPGKERELVATITRRGTSTYYADSVKGRFTISRDNAKNTVYLQMNSLKPEDTAVYYCARGQYSHRSQAGMDYWGQGTQVTVSS | high polyreactivity
QVQLVESGGGLVQAGGSLRLSCAASGFTFERYAMGSYRQAPGKERELVAAISSRGGGTYYADSVKGRFTISRENAKNTVFLQMNSLKPEDTAVYYCNRPYDYSYNYWGQGTQVTVSS | high polyreactivity
QVQLVESGGGLVQAGGSLRLSCAASGFTFESYTMGWYRQAPGKESELVAAINSGTSTYYADSVKGRFTISRDNAKNTVYLQMNSLKPEDTAVYYCNARRYRRYRKYDYWGQGTQVTVSS | high polyreactivity
QVQLVESGGGLVQAGGSLRLSCAASGFTFEVYAMGRYRQAPGKERELVAAITSSGGRTYYADSVKGRFTISRDYAKNTVYLQMNSLKPEDTAGYYCAAYVSYEYGYWGQGSQVTVSS | high polyreactivity
QVQLVESGGGLVQAGGSLRLSCAASGFTFEWNTMGWYRQAPGKERELVARINWSSGRTYYADSVKGRFTISRDNAKNTVYLQMNSLKPEDTAVYYCAASPYHSAYQNMDYWGQGTQVTVSS | high polyreactivity
QVQLVESGGGLVQAGGSLRLSCAASGFTFFAYPMGWYRQAPGKERELVAGISRSGGRTYYADSVKGRFTISRDNAKNTVYLQMNSLKPEDTAVYYCNAVVRRSYLLEYDFCGQGTQVTVSS | high polyreactivity

Sequence | polyreactivity (PSR sort gate)
QVQLVESGGGLVQAGGSLRLSCAASGFTFFDYVMGWYRQAPGKERELVAAISRNVGSTYYADSVKGRFTISRDNAKTTVYLQMNSLKPEDTAVYYCAAEPPPYEYDYWGQGTQVTVSS | high polyreactivity
QVQLVESGGGLVQAGGSLRLSCAASGFTFFEDNAMGWYRQAPGKERELVAAITSGGSTNYADSVKGRFTFSRDNAKNTVYLQMNSLKPEDTAVYYCAKDRVPLKTRFYYFPWGYDYWGQGTQVTVSS | low polyreactivity
QVQLVESGGGLVQAGGSLRLSCAASGFTFFGYAMGWYRQAPGKERELVATISDTGGSTYADSVKGRFTISRDNAKNTVYLQMNSLKPEDTAVYYCNARSVFYSMDYWGQGTQVTVSS | low polyreactivity
QVQLVESGGGLVQAGGSLRLSCAASGFTFFIYVMGWYRQAPGKEREFVAAISSSGDSTYYADSVKGRFTSSRDNAKNTVYLQMNSLKPEDTAVYYCNAGDKVSSYWYDYWGQGTQVTVSS | low polyreactivity
QVQLVESGGGLVQAGGSLRLSCAASGFTFFNYGRGWSRQAHGKERELVAAISSNGGLTYYADSVKGRFTISRDNAKNTVYLQMNSLKPEDTAVYYCATLYYGRVDYDYWGQGTQVTVSS | high polyreactivity
QVQLVESGGGLVQAGGSLRLSCAASGFTFFRIYAMGWYRQAPGKERELVAAISRSGSTYADSVKGRFTISRDNAKNTVYLQMNSLKPEDTAVYYCNTTLYADSVWYDYWGQGTQVTVSS | high polyreactivity
QVQLVESGGGLVQAGGSLRLSCAASGFTFFRYAMGWYRQAPGKERELVAAISYSGGNTYYADSVKGRFTISRDNAKNTVYLQMNSLKPEDTAVYYCNAVHFWKYDYWGQGTQVTVSS | high polyreactivity
QVQLVESGGGLVQAGGSLRLSCAASGFTFFSNAMGWYRQAPGKERELVAAITSSGGSTYADSVKGRFTISRDNAKNTVYLQMNSLKPEDTAVYYCAADAEAPPGGFKEYDYWGHGTQVTVSS | low polyreactivity
QVQLVESGGGLVQAGGSLRLSCAASGFTFFSNAMGWYRQAPGKERELVAAITSSGGSTYADSVKGRFTISRDNAKNTVYLQMNSLKPEDTAVYYCAADAQAPPGGFKEYDYWGQGTQVTVSS | low polyreactivity
QVQLVESGGGLVQAGGSLRLSCAASGFTFFSNAMGWYRQAPGKERELVASITNDGSTDADSVKGRFTISRDNAKNTVYLQMNSLKPEDTAVYYCAADFYLWRLPVYAQRYFVRGDYWGQGTQVTVSS | low polyreactivity
QVQLVESGGGLVQAGGSLRLSCAASGFTFFTYAMGWYRQAPGNERELVAAISSSGDRTYYADSVKGRFTISRDNAKNTVYLQMNSLKPEDTAVYYCAVYKYYHFYYWGQGTQVTVSS | high polyreactivity
QVQLVESGGGLVQAGGSLRLSCAASGFTFFYYVMGWYRQAPGKERELVAAISQHGGSTYYADSVKGRFTISRDNAKNTVYLQMNSLKPEDTAVYYSAASPVVNRRGTYGYWGQGTQVTVSS | high polyreactivity
QVQLVESGGGLVQAGGSLRLSCAASGFTFGAYAMGSYRQAPGKERELVASINWSGGSTYYADSVKGRFTISRDYAMNTVYFQMNRLKPEDTAVYYCAARESYPGYGYDHWGQGTQVTVSS | low polyreactivity
QVQLVESGGGLVQAGGSLRLSCAASGFTFGDYAMGWYRQAHGKERELVAAINGRSGSTYYPDSVNGRFTISRDNAKNTVYLQMNSLKPEDTAVYYCATRWRLPSRSNFDYWGQGTQVTLSS | low polyreactivity
QVQLVESGGGLVQAGGSLRLSCAASGFTFGENAMGWYRQAPGKDRELVAAITSGDGTSYADSVKGRFTISRDNAKNTVYLQMNSLKPEDTAVYSCAADVNYYQHRLYYWGLGTQVTVSS | low polyreactivity
QVQLVESGGGLVQAGGSLRLSCAASGFTFGFNDMGWYRQAPGKERELVAAITIGGTTNYADSVKGRFTISRDNAKNTVYLQMNSLKPEDTAVYSCAADTRVVYDEDYWGQGTQVTVSS | low polyreactivity
QVQLVESGGGLVQAGGSLRLSCAASGFTFGFYVMGWYRQAPGKERELVAAITVRAGSTYYADSVKGRFTISRDNAKNTVYLQMNSLKPEDTAVYYCAADSYRLYSSIAYYGMYSWGQGTQVTVSS | high polyreactivity
QVQLVESGGGLVQAGGSLRLSCAASGFTFGGNVMGWYSQAPGKERELVAAISGAGSKYYADSVKGRFTISRDNAKNTVNLQMNSLKPEDTAVNYCAADDVARYLSGYDYWGQGTQVTVSS | low polyreactivity
QVQLVESGGGLVQAGGSLRLSCAASGFTFGGYAMGWYIQAPGKERELVSAISGSGGRTYYADSVKGRFTISRDNAKNTVYLQMNSLKPEDTAVYYCATDGYWQSNGAFYYVARHGGYCGQGTQVTVSS | low polyreactivity
QVQLVESGGGLVQAGGSLRLSCAASGFTFGHYAMGWYRQAPGKQRELVAAISYSGVRTYYADSVKGRFTISRDNAKNTVYLQMNSLKPEDTAVYYCNKYPAHYQTRRYDYWGQGTQVTVSS | high polyreactivity
